The DeepSol protein solubility set

Test: soluble on expression in E. coli; label from the status in PepcDB or PDB records
With “MGSDKIHHHHHHMSTVAFHTLGCKVNHYETEAIWQLFKEANYERVDFEANADVFVINTCTVTNTGDKKSRQIIRRAIRQNPDAVICVTGCYAQTSSAEIMEIPGVDVVVGTQDRHKLLGYIDEFRKERQPINGVGNIMKNRKYEELDVPYFTDRTRASLKIQEGCNNFCTFCIIPWARGLMRSRDPEKVVEQATQLVNSGYKEIVLTGIHTGGYGQDLKDYNLAQLLRDLETINGLERIRISSIEASQLTDEVIDVLERSTKVVRHLHIPLQSGSDTVLKRMRRKYTMDRFSERLTKLHKALPDLAVTSDVIVGFPGETEAEFQETYDFIVKHKFSELHVFPYSPRIGTPAARMDDQIDEEIKNERVHKLITLSNQLGKLYASKFDQDVLEVIPEEQGDTEGTLVGYADNYMKVQFEGDESLIGQIVKVKITQANYPLNEGQAIKVVDFATNKSDREVLV” the “soluble on expression in E. coli” value was “not soluble”.
For “MSLKVRNLNISLKNNLLLKDINLDIKTGKTLMILGQSGVGKSLLGKALVRLLDSNFTISFDELSFHNSCIFNFNKEELRNFRSKVALVLQDAELSLYPYLDIGNLCHLVLKTHTKLKQKERKDYAFSYFQKLGFENLDRLWHSYANELSLGMARRVSLALALLNQPQILICDEITASLDKENASKIISILEELKNTAALVCITHDLNLVNSLADEILMLEKNSSNLYSLDEFLRYYNAEGHHHHHH”, the “soluble on expression in E. coli” value was “soluble”.
For “MGSDKIHHHHHHMLLHSAWPRLLCPSPKAKHLKDPAMFELDHDLAQDIVDRAMAILPCNVNVMDSQGLILGSGEPERINTRHEGAQLVLANGRIVELDTDAAKCLKGVQPGVNLPLMLDGRLMGVLGLTGDPQQVRTYGELVRMTAEMLLAQRNLQADQQWRRQRCDDLLALLLGGSGNSPRLLDEARQLGLKPQLPRIPCLFEITSGPPAEALAAWLMSRYPDSWCVSPARQSLLWCRPAGVALDELRLLERLQRHGWDIERLALGSAAQSLEQLRRGYRRVRDLLAYGREVLPSERLLSLQRYRLPALLWRHRNDDALDELLEPLQRIRAKDSSGQLLATLRAWCAHDGQSQSCADALGIHRNSLRYRLERIAELGEVDPLRLEGMLSLYLGLQLLPTD”, the “soluble on expression in E. coli” value was “not soluble”.
With “MPSRAEDYEVLYTIGTGSYGRCQKIRRKSDGKILVWKELDYGSMTEAEKQMLVSEVNLLRELKHPNIVRYYDRIIDRTNTTLYIVMEYCEGGDLASVITKGTKERQYLDEEFVLRVMTQLTLALKECHRRSDGGHTVLHRDLKPANVFLDGKQNVKLGDFGLARILNHDTSFAKTFVGTPYYMSPEQMNRMSYNEKSDIWSLGCLLYELCALMPPFTAFSQKELAGKIREGKFRRIPYRYSDELNEIITRMLNLKDYHRPSVEEILENPLIADLVADEQRRNLERRGRQLGEPEKSQDSSPVLSELKLKEIQLQERERALKAREKRLEQKEQELCVRERLAEDKLARAENLLKSYSLLKERKFLSLASNPELLNLPSSVIKKKVHFSGESKENIMRSENSESQLTSKSKCKDLKKRLHAAQLRAQALSDIEKNYQLKSRQILGMR” the “soluble on expression in E. coli” value was “soluble”.
With “MTSTFLYKFYPNYNAKNCGDRMPKLMLALDVLDRDRALKIVEDVKDYVDAIKVGYPLVLSTGTEIIKEIKKLCNKEVIADFKVADIPATNEKIAKITLKYADGIIVHGFVGEDSVKAVQDVAKKLNKKVIMVTEMSHPGAVQFLQPIADKLSEMAKKLKVDAIVAPSTRPERLKEIKEIAELPVITPGVGAQGGKIEDILNILDENDYVIVGRAIYQSQNPKEEAKKYKEMLNK” the “soluble on expression in E. coli” value was “soluble”.
For “MAHAPARCPSARGSGDGEMGKPRNVALITGITGQDGSYLAEFLLEKGYEVHGIVRRSSSFNTGRIEHLYKNPQAHIEGNMKLHYGDLTDSTCLVKIINEVKPTEIYNLGAQSHVKISFDLAEYTADVDGVGTLRLLDAVKTCGLINSVKFYQASTSELYGKVQEIPQKETTPFYPRSPYGAAKLYAYWIVVNFREAYNLFAVNGILFNHESPRRGANFVTRKISRSVAKIYLGQLECFSLGNLDAKRDWGHAKDYVEAMWLMLQNDEPEDFVIATGEVHSVREFVEKSFLHIGKTIVWEGKNENEVGRCKETGKVHVTVDLKYYRPTEVDFLQGDCTKAKQKLNWKPRVAFDELVREMVHADVELMRTNPNA”, the “soluble on expression in E. coli” value was “not soluble”.
For “KAPLRDMRFVLNEVFEVSRLWAQLPALAEVVDAETAAAILEEAGKVTAGTIAPLNRPGDEEGCQWNAGAVSTPAGFPEAYRTYAEGGWVGVGGDPAYGGMGMPKVISAQVEELVNSANLSFGLYPMLTAGACLALNAHASDELKDKYLPNMYAGIWAGSMCLTEPHAGTDLGIIRTRAEPQADGSYKISGTKIFITGGEHDLTENIIHLVLAKLPDAPAGPKGISLFLVPKVLVNADGSLGEKNSLGCGSIEHKMGIKASATCVMNFDGATGWLVGEVNKGLAAMFTMMNYERLGVGIQGLATGERSYQSAIEYARERIQSRAPTGPVAKDKAADPIIVHPDVRRMLLTMKALNEGGRAFSSYVAMQLDTAKYSEDAVTRKRAEELVALLTPVAKAFLTDMGLETTIHGQQIFGGHGFIREWGQEQLVRDCRITQIYEGTNGIQALDLVGRKVIGSGGAFSRHFTDEIKAFVASADEALGEFSKPLAAAVENLEELTAWLLDRAKGNPNEIGAASVEYLHVFGYTAYAYMWALMARTALAKQGEDDFYASKLGTARFYFARLLPRIHSLSASVRAGS”, the “soluble on expression in E. coli” value was “not soluble”.
With “ATAAQAERTLPKKYGGRFTVTLIPGDGVGKEITDSVRTIFEAENIPIDWETINIKQTDHKEGVYEAVESLKRNKIGLKGLWHTPADQTGHGSLNVALRKQLDIYANVALFKSLKGVKTRIPDIDLIVIRENTEGEFSGLEHESVPGVVESLKVMTRPKTERIARFAFDFAKKYNRKSVTAVHKANIMKLGDGLFRNIITEIGQKEYPDIDVSSIIVDNASMQAVAKPHQFDVLVTPSMYGTILGNIGAALIGGPGLVAGANFGRDYAVFEPGSRHVGLDIKGQNVANPTAMILSSTLMLNHLGLNEYATRISKAVHETIAEGKHTTRDIGGSSSTTDFTNEIINKLSTMHHHHH” the “soluble on expression in E. coli” value was “soluble”.
With “YIGSGASQPNRTDVVWMVPSWTCKNEYSIDVEKYGILQNEDQHFVGGKQFAIFYEHSFGKIPYFKAQNESDPKNGGLPQMGDLEAHLIQAEKDINETIPDENFNGIAVIDIEEFRPMWELSWGPFSVYKTESIRLTRQQHPYWSTKQIEWQAERDYEKACQKFFIETLRLGKRLRPNAKWGYYLFPKCNGDVGQKSDTDCSTLFQKFNDNLHWLWGESTALFPSIYLYPSQKQNPEYNFVNSGALITETKRIKRNYCPSCEIHVFTKIEYNPYYTPDDFYSKQNLASTLDLAIKMNANSVVIWSTSQSIGSRCGSLQTYVDNTLGPYLQLTDRNLD” the “soluble on expression in E. coli” value was “not soluble”.
In the case of “MSLAETVLEKARAKNEIRIATSDSLKPWGYMDDTNKPIGFNLDVSREMGKRMGFGKVTFVTDSYKNFISGLNADRYDMVVAILTPTEERRKSADFSNPYMVVSKNIFVRDDNTSIRSLEDLAGKRLGVAAGTTDEAWARQHVKDAQIRVYDNFFLALQDLAIGRVDARITDRVTGMTAAKEGRFPVKIAGPDLSQDIGAIAYKKGQDDLAAIVNKVIQEMVDDGSLNEISRKWLAGIEMGEELKKLPKDAREGHHHHHH”, the “soluble on expression in E. coli” value is reported as “soluble”.
